± gives the half width of the 95% confidence interval.
What was measured:
[1] = folding stability dG unfold from trypsin proteolysis; higher = more stable
In short: (§1)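 Bayesian fitting of sequencing counts gave K50 for each design. Unfolding free energy followed by setting this against a sequence-predicted unfolded-state K50 and a shared folded-state K50, either per protease or with trypsin and chymotrypsin combined. The designs, under 80 residues and lacking cysteine, were digested in a PA-tagged cDNA display format at 11 threefold-diluted protease concentrations and without protease, and only those with AlphaFold2 dimer inter-PAE above 15 were kept.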

[2] = folding stability dG unfold from chymotrypsin proteolysis; higher = more stable
In short: as §1

[3] = folding stability dG unfold (combined trypsin and chymotrypsin); higher = more stable
In short: as §1

Row | Sequence | folding stability dG unfold [1] [kcal/mol] | folding stability dG unfold [2] [kcal/mol] | folding stability dG unfold [3] [kcal/mol]
1 | SAGNIKIKEVEINDNTLTISYRMPGSGMWVKASIQADKGAIKIKSEYYPPKGKPIGEEEFTVPLDELKLSAG [r5_308_TrROS] | 0.979 ± 0.042 | 1.74 ± 0.31 | 1.45 ± 0.28
2 | SAGNIKISYDPDDGWLTITFPVAPGQEFSFKLNIMLPENGAKIKNVEVTGPLKDGQPVTITMKVTGIKPSAG [r5_737_TrROS] | 2.2 ± 0.13 | 3.77 ± 0.064 | 3.27 ± 0.11
3 | SAGNIMVQVEPDPGGTVKVEIMFMIPLPNGWPIMIQIEWEVRVDEDGEPELKMPIEIFFSEEALDKGFSAGG [r19_63_TrROS] | 2.06 ± 0.11 | 1.99 ± 0.029 | 2.09 ± 0.13
4 | SAGNSNTRYIVRIKIKKYNPETGKIEEIEIDVPISDDDLNIPVEKIIEALKKAFPNTEIEAEITKVPASAGG [r19_189_TrMRF] | 3.77 ± 0.29 | 3.88 ± 0.13 | 3.74 ± 0.17
5 | SAGNVTIRISFYPRKDGWFFRIKVHFDGKPRELMIPPDDSAEDLADELEKKLGADVTDIEVEWMPLEDGSAG [r5_181_TrROS] | 3.27 ± 0.1 | 4.25 ± 0.083 | 3.88 ± 0.12
6 | SAGPAPGAPWEKVEIVAEAWVPTAGGKAVPVVLARAPDGSLLATFPDGTVRVVVPGAGPEVTVELPLASAGG [r19_199_TrMRF] | 0.115 ± 0.046 | 2.032 ± 0.016 | 1.62 ± 0.065
7 | SAGPEKPFDIVIVEVKSMEVHEDPNGRRSVRIPVVARIPGGYYIRFEIWINPPTGNVSIDWEIVPLDDSAGG [r19_320_TrROS] | 2.73 ± 0.047 | 4.21 ± 0.12 | 3.82 ± 0.14
8 | SAGPEREVEVETLVIEAEDGKERLVLRLVRVDGRLYLEVRRYRDGKWEEVARFEAPEEITLSPELLKALSAG [r5_490_TrROS_Hall] | 4.09 ± 0.091 | 4.219 ± 0.039 | 4.16 ± 0.078
9 | SAGPFILVKFVTPDGRPLYYVIEIPESEEPEKLTLEQALEVAEAIAKALASKGGFEVKEVKIVSPEEFSAGG [r19_27_TrMRF] | 3.43 ± 0.083 | 3.802 ± 0.023 | 3.66 ± 0.057
10 | SAGPGAELVAEFEVELGDRGARIRIYRAPDFLIIRVDYPDGTVPVFRIDPRTGRIVEVRTFRVRPDLPLSAG [r14_676_TrMRF] | 2.56 ± 0.045 | 1.91 ± 0.098 | 2.28 ± 0.11
11 | SAGPIKELLEFLKANPDAVVEFEFTLPNGAKVKIKAKKFPDAVVLEVTTIDPNNKKPITGTITIPLPESAGG [r19_143_TrMRF] | 4.15 ± 0.13 | 3.49 ± 0.072 | 3.81 ± 0.13
12 | SAGPKMKPIPFEFRNPDNGHKVKISVYYNPNGKRKIMITNPGDGRIYTFKINPGGIEIEKEIPLDDIKFSAG [r5_619_TrROS] | 1.13 ± 0.13 | 0.857 ± 0.67 | 0.83 ± 0.36
13 | SAGPKNREIKVRIQFNGNWVEYKMPDNDLKELVKNGGLQIAGVDPEKDEIMIQIPVPPPKPDPEDGKPKSAG [r5_868_TrROS] | -0.0867 ± 0.19 | 1.23 ± 0.083 | 0.773 ± 0.15
14 | SAGPKVKLIKAEFFPDGRLVVYAEVESSNGEPAFAVGVFDPRNPNKAHVKVYNPSTGKVSEFEVTVTPGSAG [r5_345_TrMRF] | 2.57 ± 0.054 | 3.24 ± 0.042 | 3 ± 0.035
15 | SAGPLPEDVAAGKPVDVEAPIPLRRKDGDLLAVFPITGPMTVKELLEVLEAIRERARELDLPPVEDLDRSAG [r5_606_TrMRF] | 0.36 ± 0.047 | -0.268 ± 0.21 | 0.181 ± 0.065
16 | SAGPLTVTVEGDTLTVTVPLTDVPADATVRVTVTVGDKTEEYTVPPSESITVTVPSSAVEVTVERLPPASAG [r5_867_JUSTAS] | 2.09 ± 0.085 | 2.44 ± 0.082 | 2.36 ± 0.12
17 | SAGPMTLEILYKRPANEPFTLEDLELAKEVEEAVAALVPSKYKVRIKSIEYEKYPDYYYIRVTIEVEKPSAG [r5_121_TrMRF] | 4.57 ± 0.13 | 4.71 ± 0.061 | 4.64 ± 0.083
18 | SAGPNLENLEIVEIKAEVLPDNSVIVPLKVRNDNGEEEEVWGRVGNGIVTLTYPNGFPAVAFIPPSAFSAGG [r19_84_TrMRF] | 0.683 ± 0.033 | 0.576 ± 0.089 | 0.651 ± 0.051
19 | SAGPPKKVEIPVRYPFDGWEIMIQIDPKDPKIEIHVHNPEHRERAREYARTIARIFQENGIPVEIEPWSAGG [r19_354_TrROS] | 1.48 ± 0.057 | 1.91 ± 0.095 | 1.73 ± 0.21
20 | SAGPPVEIPITIKIRYWKPDPDGPKPVEERTIPIPVRMPPDQLDDPAFNNFIKEALDELPPGIRMIEITSAG [r5_849_TrROS] | 0.526 ± 0.042 | 1.28 ± 0.064 | 1.07 ± 0.068
21 | SAGPPVLALFTGSPEDVQELLDRLPPDFEVEVGRLPDLYVARFPPDVPPGTVLLPGADGRPAVVEVVEASAG [r5_123_TrMRF] | 0.526 ± 0.041 | 1.68 ± 0.037 | 1.14 ± 0.12

Row | Sequence | folding stability dG unfold [1] [kcal/mol] | folding stability dG unfold [2] [kcal/mol] | folding stability dG unfold [3] [kcal/mol]
22 | SAGPVTIPIFYRVPPGEPMTPEAKEFAIELAKYIARLFPPGYKIEIDSIEWERHPNYYYFRVTIEIEPPSAG [r5_121_TrROS] | 3.64 ± 0.16 | 3.8 ± 0.085 | 3.62 ± 0.27
23 | SAGPVVVDPNGKLLPLKVKAVFVIDPELLEEKAKESDNSLEKAIRDLVKELEAELKAKGYDVEVEGIGSAGG [r19_305_TrMRF] | 1.12 ± 0.067 | 1.97 ± 0.049 | 1.68 ± 0.061
24 | SAGPWMPYYVKVKFPDEEKLEKLVDEIQDESGFNMQVKKNPENGTRTVRVNMPPNIMEALKKHGFEIVSAGG [r19_306_TrROS] | 0.415 ± 0.11 | -0.208 ± 0.46 | 0.337 ± 0.34
25 | SAGPWRIKEVDPDSYTIEIRFGDRPIEIKIPPGKEPSIMIEMDPDGHFQLTIRVPDRTRTFTIPFDDIRSAG [r5_500_TrROS] | 0.86 ± 0.13 | 0.591 ± 0.25 | 0.674 ± 0.19
26 | SAGPWWMITIRLPGNKTITIMFPGVKVEVDPKNNTIRIRNPGLGHSIEFKFDPPGKIKDVDIEPIPPNASAG [r5_342_TrROS] | 3.39 ± 0.21 | 4.49 ± 0.13 | 3.95 ± 0.18
27 | SAGQTITFELKDPDITPEELQKKLQKRFGMKPMNIKPVEPDPDGWRFVIEFPENGGTRTFPWEEIRELISAG [r5_550_TrROS] | 0.861 ± 0.11 | 1.12 ± 0.18 | 1.03 ± 0.13
28 | SAGQWVKFTLPIYKMKYEKDKDGKPEIKEMKPIPKFDIEARVDEDGNVRIRFGGNEREFPPGESLEDLISAG [r14_909_TrROS] | 0.0407 ± 0.21 | 0.482 ± 0.28 | 0.478 ± 0.24
29 | SAGRKIEIHVPYDELRELFGPGQTAEDLADWIAQEGYQIEDIEVEPEPNPNNGKKYYRVTFEVKPPKKSAGG [r19_376_TrROS] | 0.345 ± 0.054 | 1.28 ± 0.12 | 0.95 ± 0.11
30 | SAGSIEIYIIYPPEDPDQPPTEEEIRSIARSLARQLGLPPKDFPIDVEWRRIDPEDGIYVYEITIEFPSAGG [r19_244_TrROS] | 2.74 ± 0.059 | 3.57 ± 0.062 | 3.27 ± 0.1
31 | SAGSIPEEIAKELGLPDLKVLKVETKPLPNGPLNIKIIELELPGGFKIKVTVVEEPEKIIIKTEPVPLSAGG [r19_392_JUSTAS] | 0.966 ± 0.034 | 0.64 ± 0.18 | 0.968 ± 0.27
32 | SAGSKTISISVPGNWNIEELKAFLSTLPDNVTVYIFYPNKVYVGTVDKKNINLSADSSYDGFKVLVVVPSAG [r5_373_TrMRF] | 2 ± 0.06 | 3.12 ± 0.028 | 2.84 ± 0.083
33 | SAGSKTITLEFNFEELKVKVTVTYDPEGEPTVTVTTTIYAKGGEKLETKTTTVTASPDDPVVKAFLESSSAG [r5_964_JUSTAS] | 2.19 ± 0.041 | 3.16 ± 0.084 | 2.77 ± 0.074
34 | SAGSLEKVTESSTSSDKVEVTTTTLTPLSNPSVPVQYVKTTTTTTLIDPATGKTLSTTTTTTTTPLPAASAG [r5_300_JUSTAS] | -0.0274 ± 0.047 | 0.0998 ± 0.19 | 0.053 ± 0.19
35 | SAGSLKPGDLLYVRIYVYNPDGELLGEIDELVETEEEAERRLRELAREIEERLGRNVRVLAEIYRYPRLSAG [r5_232_TrMRF] | 3.36 ± 0.088 | 4.559 ± 0.024 | 4.19 ± 0.1
36 | SAGSLKPSDLVLLRSRPVRVGGKPVVLVDLVVFHPDGSASRAVLTLPSGVGPPVVGVVPVPALVRLIASSAG [r5_831_TrMRF] | 1.53 ± 0.047 | 2.14 ± 0.084 | 1.95 ± 0.12
37 | SAGSMHLVEFTGTEEVVDEFLASLPPEVVVERERYPDRWLVRLPPDVPARTITVPTPDGRPVTFTLRLESAG [r5_123_JUSTAS] | -0.851 ± 0.41 | -0.346 ± 0.31 | -0.487 ± 0.21
38 | SAGSMKTVVRVEKEVDPSTGKITITEEIEDKVYTTTMDLNPETGDATSTVTYPDSTIGTTTVPISSISSSAG [r5_415_JUSTAS] | -0.155 ± 0.024 | 0.706 ± 0.052 | 0.432 ± 0.067
39 | SAGSMLFDPNGVLREVSVTPDPSTGTTVTTTLVQWPVDDGNGNSVLERITTTTSPSGTVTTSTEVRPAPSAG [r5_303_JUSTAS] | 0.182 ± 0.027 | 0.0881 ± 0.034 | 0.138 ± 0.085
40 | SAGSMPPSTTTSEEVTVGGKKVKRTTTVYRAPNGTPSVTSTYTLGETPGVEDPLSGKALTPEERAAAAASAG [r5_138_JUSTAS] | 0.417 ± 0.21 | 0.564 ± 0.28 | 0.668 ± 0.16
41 | SAGSMSSVKKVKITTTSYDPTNGAKKETSYDVTVTTTTYPATGEITRTIYFTSTGKWKVEHLPPGAPLASAG [r14_587_JUSTAS] | 1.48 ± 0.066 | 2.15 ± 0.12 | 1.97 ± 0.14
42 | SAGSNKKITAEELAKLLEEKFKEKFPDAEIKVHAHAEPRPDDKLIIHVHFEIYRKKPKIGEFDVVIEFESAG [r5_696_TrMRF] | 1.55 ± 0.085 | 2.76 ± 0.043 | 2.38 ± 0.13

From the supplement of paper PMC12764529
